Patent US20050003548A1

Target: human CD40 on cells (293.CD40 cells, Namalwa cells, human monocyte-derived dendritic cells) (human) (UniProt P25942)
Experiment: cell-based or functional assay

Sequence of UniProt P25942 (P25942 21-277): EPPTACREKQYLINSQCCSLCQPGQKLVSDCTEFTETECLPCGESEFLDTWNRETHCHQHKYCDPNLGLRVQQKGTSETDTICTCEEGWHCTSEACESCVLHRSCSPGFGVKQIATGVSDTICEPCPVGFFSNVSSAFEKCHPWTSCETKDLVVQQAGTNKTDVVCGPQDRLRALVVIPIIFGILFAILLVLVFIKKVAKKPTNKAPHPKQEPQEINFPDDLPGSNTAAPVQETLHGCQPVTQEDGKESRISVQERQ

For “Fc-CD40L (TNF-like domain of human CD40 Ligand fused to the hinge region of the Fc domain of human IgG gamma 1) (from UniProt P29965 116-261) (Fc fusion)”, the reporter gene delivery to human monocyte-derived dendritic cells by Ad5.DR-LL-Cd complexed with the ligand, fold over Ad5.DR was 28 to 35 fold.

“Fc-G28.5 (fusion of anti-CD40 single chain antibody G28.5 with the Fc domain of human immunoglobulin and a six-histidine sequence) (Fc fusion)” gave a reporter gene delivery to human monocyte-derived dendritic cells by Ad5.DR-LL-Cd complexed with the ligand, fold over Ad5.DR of 28 to 35 fold.
